Patent CN115028713A (JIANGSU DONGKANG BIOMEDICAL TECH CO LTD, dated 2022)

Biological target: T1, SARS-COV2-N-B1617 (N protein of SARS-CoV-2 variant B1617) (SARS-CoV-2 variant B1617)
T1 construct: also called 冠状病毒SARS-COV2变异株B1617

B1: 单克隆抗体OP2 (anti-SARS-CoV-2 N protein monoclonal antibody OP2) (antibody, V domains shown)
VH: DVQLVESGGGLVQPGGSRKLSCAASGSTFSNFGMHWVRQAPEKGLEWVAYISSASSIIYYADTVKGRFTISRDNPKNTLFLQMTSLRSEDTAMYYCARSAMDYWGQGTSVTVSS
VL: DIVLTQSPASLAVSLGQRATISCKASQSVNYSGDSYMNWFQQKPGQPPKLLIYAASNLESGIPARFSGSGSGTDFTLNIHPVEEEDAATYYCQQSEEQPYTFGGGTKLEIK
notes: also called 抗N蛋白的抗体
Question: B1 was tested. Which EC50 did it give?
Answer: 0.0166 µg/mL
